Assay results published in paper PMC6957492, “Assembly and substrate recognition of curli biogenesis system” (Nature Communications, 2020).
Entries after “also recorded” stand apart in the source; their conditions may differ.

Legend:
CsgB = assay: Pulldown assay of CsgB by CsgF domains; type: binding, E. coli; details: CsgB C-terminal MBP tag, CsgF parts N-terminal MBP tag; western blot
Description: After incubation for 20 min, the mixture was loaded to a Strep-Tactin column (IBA). The beads were washed four times with a buffer having 25 mM Tris-HCl at pH 8.0, 150 mM NaCl, and eluted in a buffer having 25 mM Tris-HCl at pH 8.0, 150 mM NaCl, and 2.5 mM desthiobiotin. […] The samples were analyzed by 15% SDS–PAGE and detected by western blotting.

CsgG = assay: Pulldown assay of CsgF variants/domains with CsgG as bait; type: binding, E. coli K12; details: CsgF variants with C-terminal MBP tag
Description: The procedure of CsgG purification was similar to that of the CsgFG complex. […] After incubation for 30 min, the mixture was loaded into a Strep-Tactin column (IBA). […] Individual CsgG and CsgF variants were purified as input by Strep-Tactin and Ni-NTA, respectively. The samples were analyzed by 15% SDS–PAGE and stained with Coomassie blue.
CsgFGBD-MBP mutant variants were purified as soluble protein by Ni-NTA. CsgG were purified as membrane protein by Strep-Tactin and substituted by amphipole A8-35. CsgFGBD-MBP mutant variants (36 μM) and CsgG nonamer (2 μM) were mixed together at 4 °C for 2 h and then incubated with equal volume of Strep-Tactin beads at 4 °C for 1 h.
Supplementary Figure 5. Interaction mode between CsgFN and CsgG. a, Interaction of CsgFN and CsgG. […] Two adjacent subunits of CsgG are shown in magenta and cyan, respectively. b, Hydrogen bonds and electrostatic interaction between CsgFN and CsgG. Hydrogen bonds are shown as red […]
aromatic residues in CsgG. d, The hydrophobic interaction between CsgFN and CsgG. e, Pulldown assay between the CsgF(C-terminal MBP tag) mutant variants and CsgG. […] Source data are provided as a Source Data file.
(1 picture or pasted object on this page, not shown here)

[1] = target: T1, Wild-type CsgG (expressed alone) (E. coli K12, UniProt P0AEA2 16-277); assay: ITC; MicroCal ITC200, 25 °C; nonameric CsgG in amphipole A8-35 in the cell (2 or 10 μM), CsgFN-MBP (200 μM), CsgAN6 peptide (1 mM) or PeptideN (60 µM) in the syringe; 10 mM HEPES pH 7.5, 50 mM NaCl; details: both partners purified
T1 construct: also called CsgG nonamer; nonameric CsgG
T1 sequence (looked up): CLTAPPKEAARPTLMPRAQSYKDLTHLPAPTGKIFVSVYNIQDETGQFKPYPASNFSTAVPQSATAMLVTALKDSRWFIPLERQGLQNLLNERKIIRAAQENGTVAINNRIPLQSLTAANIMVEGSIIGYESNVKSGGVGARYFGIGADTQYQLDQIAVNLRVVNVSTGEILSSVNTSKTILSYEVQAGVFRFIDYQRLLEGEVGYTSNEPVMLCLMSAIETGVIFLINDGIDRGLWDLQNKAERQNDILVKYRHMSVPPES

[2] = target: T2, Wild-type CsgG (expressed alone) (E. coli K12, UniProt P0AEA2 16-277); assay: ITC
T2 chain: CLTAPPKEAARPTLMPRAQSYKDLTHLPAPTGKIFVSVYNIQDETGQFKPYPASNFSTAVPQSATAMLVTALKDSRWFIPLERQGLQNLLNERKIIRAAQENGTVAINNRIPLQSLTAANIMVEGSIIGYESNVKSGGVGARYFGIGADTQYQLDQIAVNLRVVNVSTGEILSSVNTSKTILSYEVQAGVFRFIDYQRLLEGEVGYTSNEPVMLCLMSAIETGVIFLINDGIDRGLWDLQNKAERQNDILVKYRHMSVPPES

[3] = target: the molecule itself; assay: cryo-EM structure; CsgFG complex co-expressed from the CsgEFG operon, purified in LDAO; single-particle cryo-EM, 3.8 Å without symmetry, 3.38 Å with C9 symmetry
[4] = tested on: curli cell association in E. coli K-12 strain BW25113; assay: Congo red cell-association assay; type: cell-based, E. coli K-12 BW25113; details: CsgF variants, scraped YESCA plates after 48 h
Description: (§1) The E. coli K-12 strain BW25113 wild type (WT) and mutants were cultured overnight in LB at 37 °C. To induce curli production, 5 μl sample was spotted on YESCA plates (10 g/L casamino acids, 1 g/L yeast extract, and 20 g/L Bacto agar) supplemented with 100 μg/ml ampicillin and 90 μg/ml Congo red. The plates were incubated at 26 °C for 48 h. […] For overexpression assay in the ΔCsgE mutant strain, 3 μM IPTG was also supplemented in the YESCA plates.
For the Congo red cell-association assay, after growing in YESCA plates for 48 h, the cells were scraped from the plates and the scraped plates were observed. The remaining plates with curli cell association appeared white, while the remaining plates without curli cell association appeared red.

[5] = tested on: curli production in E. coli K-12 strain BW25113; assay: Congo red secretion assay of CsgF, CsgA or CsgG variants; type: cell-based, E. coli K-12 BW25113
Description: as §1

## CsgFN: N-terminal domain of CsgF (CsgFN, residues 1–36)
CsgB
  pulldown of CsgB: could not pulldown CsgB
CsgG
  CsgF-CsgG interaction in pulldown: CsgG can pulldown both the full-length CsgF and CsgFN

B1: PeptideN_(N17R) (peptide)
peptide: GTMTFQFRNPNFGGNPR
notes: source: synthetic peptide
[1]
  binding result: binds
[2]
  Kd: 0.0141 µM

B2: CsgF (from the CsgEFG operon) (natural protein, E. coli K12, UniProt P0AE98 20-138, looked up)
chain: GTMTFQFRNPNFGGNPNNGAFLLNSAQAQNSYKDPSYNDDFGIETPSALDNFTQAIQSQILGGLLSNINTGKPGRMVTNDYIVDIANRDGQLQLNVTDRKTGQTSTIQVSGLQNNSTDF
notes: also called CsgFN (residues 1-36) and CsgFC (residues 37-119) are its domains; source: E. coli BL21 (DE3), co-expressed from the CsgEFG operon, co-purified with CsgG (Strep-Tactin, SEC)
[3]
  stoichiometry N: 9 subunits

B3: F5D (protein)
chain: GTMTDQFRNPNFGGNPNNGAFLLNSAQAQNSYKDPSYNDDFGIETPSALDNFTQAIQSQILGGLLSNINTGKPGRMVTNDYIVDIANRDGQLQLNVTDRKTGQTSTIQVSGLQNNSTDF
modifications: left off: MBP, end not stated, kept | His tag (from the Ni-NTA purification), end not stated, state not stated
CsgG
  CsgF-CsgG interaction in pulldown: abolished the interaction between CsgF and CsgG
[4]
  Congo red cell-association phenotype: nearly eliminated

B4: N11A (protein)
chain: GTMTFQFRNPAFGGNPNNGAFLLNSAQAQNSYKDPSYNDDFGIETPSALDNFTQAIQSQILGGLLSNINTGKPGRMVTNDYIVDIANRDGQLQLNVTDRKTGQTSTIQVSGLQNNSTDF
modifications: left off: MBP, end not stated, kept | His tag (from the Ni-NTA purification), end not stated, state not stated
CsgG
  CsgF-CsgG interaction in pulldown: did not show any detectable influence on CsgF-CsgG interaction

B5: N9A (protein)
chain: GTMTFQFRAPNFGGNPNNGAFLLNSAQAQNSYKDPSYNDDFGIETPSALDNFTQAIQSQILGGLLSNINTGKPGRMVTNDYIVDIANRDGQLQLNVTDRKTGQTSTIQVSGLQNNSTDF
modifications: left off: MBP, end not stated, kept | His tag (from the Ni-NTA purification), end not stated, state not stated
CsgG
  CsgF-CsgG interaction in pulldown: showed reduced interaction between CsgF and CsgG

B6: R8A (protein)
chain: GTMTFQFANPNFGGNPNNGAFLLNSAQAQNSYKDPSYNDDFGIETPSALDNFTQAIQSQILGGLLSNINTGKPGRMVTNDYIVDIANRDGQLQLNVTDRKTGQTSTIQVSGLQNNSTDF
modifications: left off: MBP, end not stated, kept | His tag (from the Ni-NTA purification), end not stated, state not stated
CsgG
  CsgF-CsgG interaction in pulldown: showed reduced interaction between CsgF and CsgG

B7: L22D (protein)
chain: GTMTFQFRNPNFGGNPNNGAFDLNSAQAQNSYKDPSYNDDFGIETPSALDNFTQAIQSQILGGLLSNINTGKPGRMVTNDYIVDIANRDGQLQLNVTDRKTGQTSTIQVSGLQNNSTDF
modifications: left off: MBP, end not stated, kept | His tag (from the Ni-NTA purification), end not stated, state not stated
CsgG
  CsgF-CsgG interaction in pulldown: showed reduced interaction between CsgF and CsgG

B8: L23D (protein)
chain: GTMTFQFRNPNFGGNPNNGAFLDNSAQAQNSYKDPSYNDDFGIETPSALDNFTQAIQSQILGGLLSNINTGKPGRMVTNDYIVDIANRDGQLQLNVTDRKTGQTSTIQVSGLQNNSTDF
modifications: left off: MBP, end not stated, kept | His tag (from the Ni-NTA purification), end not stated, state not stated
CsgG
  CsgF-CsgG interaction in pulldown: showed reduced interaction between CsgF and CsgG

B9: F21D (protein)
chain: GTMTFQFRNPNFGGNPNNGADLLNSAQAQNSYKDPSYNDDFGIETPSALDNFTQAIQSQILGGLLSNINTGKPGRMVTNDYIVDIANRDGQLQLNVTDRKTGQTSTIQVSGLQNNSTDF
modifications: left off: MBP, end not stated, kept | His tag (from the Ni-NTA purification), end not stated, state not stated
CsgG
  CsgF-CsgG interaction in pulldown: did not show any detectable influence on CsgF-CsgG interaction

B10: F7D (protein)
chain: GTMTFQDRNPNFGGNPNNGAFLLNSAQAQNSYKDPSYNDDFGIETPSALDNFTQAIQSQILGGLLSNINTGKPGRMVTNDYIVDIANRDGQLQLNVTDRKTGQTSTIQVSGLQNNSTDF
modifications: left off: MBP, end not stated, kept | His tag (from the Ni-NTA purification), end not stated, state not stated
CsgG
  CsgF-CsgG interaction in pulldown: abolished the interaction between CsgF and CsgG; also recorded: didn’t see binding
[4]
  Congo red cell-association phenotype: nearly eliminated

B11: F12D (protein)
chain: GTMTFQFRNPNDGGNPNNGAFLLNSAQAQNSYKDPSYNDDFGIETPSALDNFTQAIQSQILGGLLSNINTGKPGRMVTNDYIVDIANRDGQLQLNVTDRKTGQTSTIQVSGLQNNSTDF
modifications: left off: MBP, end not stated, kept | His tag (from the Ni-NTA purification), end not stated, state not stated
CsgG
  CsgF-CsgG interaction in pulldown: abolished the interaction between CsgF and CsgG
[4]
  Congo red cell-association phenotype: nearly eliminated

B12: CsgFN17R: N17R-mutated CsgF (protein, UniProt P0AE98 20-138, looked up, variant N17R)
Curli production …: GTMTFQFRNPNFGGNPRNGAFLLNSAQAQNSYKDPSYNDDFGIETPSALDNFTQAIQSQILGGLLSNINTGKPGRMVTNDYIVDIANRDGQLQLNVTDRKTGQTSTIQVSGLQNNSTDF
[5]; CsgF variants in ∆CsgF strain, YESCA/Congo red plates, 26 °C, 48 h
  Congo red secretion phenotype (curli formation): loss of the Congo red phenotype
[5]; N17R-mutated CsgF expressed in wild type (WT) strain
  Congo red secretion phenotype: largely reduced Congo red phenotype

B13: CsgG (from the CsgEFG operon construct with C-terminal strep-tag II) (natural protein, E. coli K12, UniProt P0AEA2 16-277, looked up)
chain: CLTAPPKEAARPTLMPRAQSYKDLTHLPAPTGKIFVSVYNIQDETGQFKPYPASNFSTAVPQSATAMLVTALKDSRWFIPLERQGLQNLLNERKIIRAAQENGTVAINNRIPLQSLTAANIMVEGSIIGYESNVKSGGVGARYFGIGADTQYQLDQIAVNLRVVNVSTGEILSSVNTSKTILSYEVQAGVFRFIDYQRLLEGEVGYTSNEPVMLCLMSAIETGVIFLINDGIDRGLWDLQNKAERQNDILVKYRHMSVPPES
notes: also called CsgG channel; CsgG subcomplex; source: E. coli BL21 (DE3), co-expressed from the CsgEFG operon; membrane fraction solubilised in DDM/LDAO, purified (Strep-Tactin, SEC); not shown: strep-tag II, C-terminal, kept
[3]
  stoichiometry N: 9 subunits

B14: CsgFC: CsgF C-terminal domain (residues 37–119) (protein)
chain: YNDDFGIETPSALDNFTQAIQSQILGGLLSNINTGKPGRMVTNDYIVDIANRDGQLQLNVTDRKTGQTSTIQVSGLQNNSTDF
modifications: left off: MBP, C-terminal, kept | His tag (from the Ni-NTA purification of the input), end not stated, state not stated
CsgB
  pulldown of CsgB: full-length CsgF and CsgFC could
CsgG
  CsgF-CsgG interaction in pulldown: unlikely to interact with CsgG

B15: CsgAN6 peptide (peptide)
peptide: GVVPQY
[1]
  Kd: 23.8 µM
